{"source": "paper PMC3990709", "about": "“Structural Differences Explain Diverse Functions of Plasmodium Actins” (PLoS Pathogens, 2014)", "proteins": {"B1": {"name": "Plasmodium falciparum actin I (natural protein)", "chain": "not shown", "notes": "actin I of Plasmodium falciparum, PlasmoDB PF3D7_1246200; also called PfActI; Plasmodium actin I; source: Sf21 cells at 300 K, purified (size exclusion chromatography), alone or as a complex with G1"}}, "biological_target": "the molecule itself", "assay": "native gel or EMSA; native PAGE, ATP form, 0.1 mM CaCl2 and 0.5 mM ATP in the running buffer, 277 K; samples 6.7 µM, immediately and 48 h after purification (stored on ice)", "note": "Several values for one entry are separate records, joined by “and”; a condition that tells them apart may be missing. Identical values can stand only once.", "data": [{"protein": "B1", "values": [{"measurement": "stoichiometry N", "result": "4 and 12"}]}]}
